Laboratory results as given in paper PMC10784468 (Nature Communications, 2024).

Experiment: •OH by TPA fluorescence assay, turnover frequency
Conditions: TPA fluorescence 425 nm, H2O2 concentration-dependent
Protocol: The generation of •OH was determined by the Magnettech MS-5000 EPR spectrometer. Typically, peptide-porphyrin conjugates (40 μM) were exposed to H2O2 (200 μM) for 3 min in the presence of 5,5-dimethyl-1-pyrroline-N-oxide (DMPO, 100 μM). The •OH signal was immediately detected by the EPR spectrometer. The amount of •OH was measured by using TPA as an indicator that following the increasement of HTPA fluorescence in the conjugate solution. Briefly, TPA (50 μL, 2 mM) and fresh conjugate solution (50 mM) were mixed with 1 ml H2O, and then the solution was exposed to various concentration of H2O2. The fluorescence at 425 nm (λex = 310 nm) was recorded at 5 min to determine the concentration of •OH, which can further be applied for calculating the TOF of peptide-porphyrin conjugates.
Supplementary Fig. 21. Terephthalic acid (TPA) reacts with hydroxyl radical in solution to produce stable and strong fluorescent substances (Ortho -hydroxyterephthalic acid, HTPA). The reaction is used to quantitatively analyze •OH produced by Gi -F under the H2O2 treatment (a). Plot showing the linear relationship of relative fluorescence intensity with H 2O2 concentration (b). The fluorescence of different concentration of HTPA at 425 […]
(1 picture or pasted object on this page, not shown here)

FeTCPP-LKLKLKGACNWLPLYPCPV (disulfide) [Gi-F]
turnover frequency (TOF): 0.022 s⁻¹
